Experimental data as given in patent publication US8455435B2, “Remedies for ischemia” (Ludwig-Maximilians-Universitat Munchen, priority 2006, dated 2013).
Entries after “also recorded” stand apart in the source; their conditions may differ.

Legend:
cortical infarct = conditions: permanent middle cerebral artery occlusion; cited from earlier work
CXCR4 = CXCR4 (Mus musculus, UniProt P70658); conditions: 48 hours after MI; cited from earlier work
[1] = tested on: CD45+/CD34+ and CD34+/CXCR4+ cells in the heart; test: Flow cytometry of non myocyte cardiac cells after MI; type: in vivo, C57BL/6 and CD26 k.o. mice; conditions: AMD3100 1.25 mg/kg i.p. in G-CSF treated CD26 k.o. and G-CSF-DipA animals
Method: FIGS. 27A, 27C, 27E, Tab. S 3A; Nr. 2: FIGS. 27B, 27D, 27F, Tab. S 3B). Animal care and all experimental procedures were performed in strict accordance to the Guide for the Care and Use of Laboratory Animals published by the US National Institutes of Health (NIH publication No. 85-23, revised 1996). Mice were randomly divided into the following groups: […] G-CSF and/or Diprotin A treatment was initiated immediately after the surgical procedure. Cardiac cells from sham operated and infarcted hearts of wt and CD26 k.o. mice were analyzed 48 hours after MI (n=6). Therefore, a “myocyte-depleted” cardiac cell population was prepared, incubating minced myocardium in 0.1% collagenase IV (Gibco BrL) 30 min at 37° C., lethal to most adult mouse cardiomyocytes (Zhou et al., 2000). Cells were then filtered through a 70-μm mesh. […] Cells were stained with CD45-PerCP, CD34-FITC, CD26-FITC, c-kit-PE, Sca-1-PE, CXCR4-PE Flk-1, Flk-PE, CD3-biotin, CD45R/B220-biotin, CD11b-biotin, TER-119-biotin, Ly-6G-biotin Abs (all from BD Pharmingen) and subjected to flow cytometry using […] flow cytometer and Expo32 ADC Xa software (Beckman Coulter). For evaluation of SDF-1-CXCR4 dependent homing, G-CSF stimulated CD26 k.o. mice were treated i.p. with the CXCR4-antagonist AMD3100 (1.25 mg/kg). Cardiac cells were analyzed 8 hours after the last AMD3100 application. Each analysis included 50000 events.

[2] = tested on: TUNEL positive cardiomyocytes; test: TUNEL staining of apoptotic cardiomyocytes in the border zone after MI; type: in vivo, wt and CD26-/- mice; conditions: 2 days after MI, wt and CD26-/- animals, vs saline
Method: (§1) Mice were randomly divided into the following groups: Sham operated animals (n=20), infarcted wildtyp (n=20) (wt) receiving either saline (0.9% NaCl), G-CSF (100 μg/kg/d i.p.), Diprotin A (70 μg/kg/twice per day) or G-CSF+Diprotin A and CD26 k.o. animals (n=20) receiving either saline (0.9% NaCl) or G-CSF (100 μg/kg/d) for up to 6 days. G-CSF and/or Diprotin A treatment was initiated immediately after the surgical procedure.
(§2) For immunostaining the following primary antibodies were used: CD45 (rat anti-mouse, BD Pharmingen), CD31 (goat anti-mouse, Santa Cruz), Ki67 (goat anti-mouse, Santa Cruz). AEC was used as chromogen. Double staining for CD31 and Ki67 was performed using DAB as additional chromogen (all from Dako). Apoptotic cells were detected according to Harada et al. 2005 (Harada et al., 2005) using the TUNEL assay (ApopTag, MP Biomedicals). Digital photographs were taken at a magnification of ×400, and 10 random high-power fields (HPF) from the borderzone of each heart sample (n=3) were analyzed. Quantification of blood vessels was assessed by CD31^+ immunohistochemistry in the granulation tissue at the border zone. The numbers of CD31^+ capillaries were quantified from 10 random high power fields (HPF) with 400× magnification.

myocardial infarction = test: Survival after MI (Kaplan-Meier; G-CSF, Diprotin A); type: in vivo, C57BL/6 and CD26 k.o. mice
Method: (§3) MI was induced in 10 weeks old male CD26 k.o. or C57BL/6 mice by surgical occlusion of the left anterior descending artery (LAD) as described previously (Deindl et al., 2006). Experiments concerning survival and cardiac function were performed by two different operators (Nr. 1: FIGS. 27A, 27C, 27E, Tab. S 3A; Nr. 2: FIGS. 27B, 27D, 27F, Tab. S 3B). Animal care and all experimental procedures were performed in strict accordance to the Guide for the Care and Use of Laboratory Animals published by the US National Institutes of Health (NIH publication No. 85-23, revised 1996).
as §1
Results were expressed as mean±s.e.m. Multiple group comparisons were performed by one-way analyses of variance (ANOVA) followed by the Bonferroni procedure for comparison of means. Comparisons between two groups were performed using the unpaired Student's t-test. Data were considered statistically significant at a value of p≦0.05. Mortality was analyzed by the Kaplan-Meier-method.

CD45+/CD34+ progenitors = test: FACS of peripheral blood, stem cell mobilization by G-CSF; type: in vivo, C57BL/6 and CD26 k.o. mice; conditions: G-CSF 100 μg/kg/d; wt (+/-Diprotin A) and CD26 k.o. mice vs saline
Method: 10 weeks old CD26 k.o. (n=6) were either treated with G-CSF (100 μg/kg/d) or saline daily for 6 days and or C57BL/6 mice (n=6) were treated with saline, G-CSF, Diprotin A or both daily for 6 days. Cells were separated as described previously (Deindl et al., 2006). The following monoclonal antibodies were used: CD45-PerCP, CD34-FITC, CD31-PE, c-kit-PE, Sca-1-PE, CXCR4-PE, Flk-PE, CD3-biotin, CD45R/B220-biotin, CD11b-biotin, TER-119-biotin, Ly-6G-biotin (all from BD Pharmingen). Matching isotype antibodies (BD Pharmingen) served as controls. Cells were analyzed by 3-color flow cytometry using a Coulter® Epics® XL-MCL™ flow cytometer (Beckman Coulter). Each analysis included 50000 events.

infarcted heart = test: Histology and immunohistochemistry after MI: infarct size, LV wall thickness, CD31+ capillaries (G-CSF, Diprotin A); type: in vivo, C57BL/6 and CD26 k.o. mice
Method: as §3, §1
At day 6 (n=6) and day 30 (n=6), hearts were excised. After fixation in 4% phosphate buffered formalin the hearts were cut transversally into 2 mm thick slices and embedded in paraffin. 4 μm thick sections were cut and mounted on positively charged glass slides. […] Infarct size and wall thickness were determined according to Deindl et al. (Deindl et al., 2006).
as §2, with “AEC was used as chromogen. Double staining for CD31 and Ki67 was performed using DAB as additional chromogen (all from Dako).” left out

[3] = tested on: CD45+/CD34+ and CD45+/CD34- cell populations in peripheral blood; test: Flow cytometry of peripheral blood mononuclear cells after PTH or G-CSF in healthy mice; type: in vivo, C57BL/6 mice; conditions: PTH day 6 and day 14; G-CSF day 6
Method: (§4) For the experiments healthy age- and sex-matched (male, 8-12 weeks of age) C57BL/6 mice (Charles River) were used. Animal care and all experimental procedures were performed in strict accordance to the German and National Institutes of Health animal legislation guidelines and were approved by the local animal care and use committees.
(§5) Mice were divided into the following groups: 1) administration of saline daily for 6 days, sacrificed at day 7 (n=6). 2) administration of PTH (Bachem) daily for 6 consecutive days (80 μg per kg body weight per day, intraperitoneally), sacrificed at day 7 (n=6). 3) administration of PTH daily for 14 consecutive days, sacrificed at day 15 (n=6). 4) administration of G-CSF (Amgen Biologicals) daily for 5 consecutive days (200 μg per kg body weight per day, intraperitoneally), sacrificed at day 6 (n=6).
(§6) at day 6, 1 ml of peripheral blood was harvested from each mouse by aspirating the carotid artery. Bone marrow cells were obtained by flushing the tibias and femurs from the euthanized mice. Mononuclear cells were separated by density-gradient centrifugation using 1.077 g/mL Histopaque solution (Sigma Chemicals), purified and resuspended in phosphate-buffered saline (PBS) containing 1% bovine serum albumin. Cells were incubated for 40 minutes in the dark at 4° C. with following fluorescein-isothiocyanate (FITC), phycoerythrin (PE), and peridinin-chlorphyll-protein (PerCP) conjugated monoclonal antibodies: CD45-PerCP, C34-FITC, CD31-PE, Sca-1-PE and c-kit-PE (all from BD Pharmingen). Isotype-identical antibodies (BD Pharmingen) served as controls. Cells were analyzed by 3-color flow cytometry using a Coulter® Epics® XL-MCL™ flow cytometer (Beckman Coulter). Each analysis included 20000 events. The absolute number of antigen-positive cells per ml of whole blood was calculated by multiplying the percentage of antigen-positive cells with the total number of mononuclear cells per ml of blood detected by the conventional hematological cell analyzer. The number of lymphocytes together with the number of monocytes comprised the total number of mononuclear cells.

myocardial function = test: Pressure volume relations four weeks after MI (G-CSF, Diprotin A); type: in vivo, C57BL/6 and CD26 k.o. mice; conditions: day 30, CD26 k.o. mice
Method: as §3, §1
For evaluation of pressure-volume relationships in vivo, mice were anesthetised with thiopental (100 mg/kg, i.p.), intubated and ventilated (MiniVent, HUGO SACHS, Freiburg, Germany). After catheterization via the right carotid artery an impedance-micro manometer catheter (Millar Instruments, Houston, Tex.) was introduced into the left ventricle. Raw conductance volumes were corrected for parallel conductance by the hypertonic saline dilution method as described previously (Zaruba et al., 2008). Heamodynamic measurements as well as data analyses were performed by a blinded person using PVAN analysis software (HUGO SACHS, March, Germany).

[4] = tested on: CD45+/CD34+ and CD45+/CD34- cell populations in bone marrow; test: Flow cytometry of bone marrow cells after PTH or G-CSF in healthy mice; type: in vivo, C57BL/6 mice
Method: as §4, §5, §6

CXCR4, sequence (P70658 whole entry): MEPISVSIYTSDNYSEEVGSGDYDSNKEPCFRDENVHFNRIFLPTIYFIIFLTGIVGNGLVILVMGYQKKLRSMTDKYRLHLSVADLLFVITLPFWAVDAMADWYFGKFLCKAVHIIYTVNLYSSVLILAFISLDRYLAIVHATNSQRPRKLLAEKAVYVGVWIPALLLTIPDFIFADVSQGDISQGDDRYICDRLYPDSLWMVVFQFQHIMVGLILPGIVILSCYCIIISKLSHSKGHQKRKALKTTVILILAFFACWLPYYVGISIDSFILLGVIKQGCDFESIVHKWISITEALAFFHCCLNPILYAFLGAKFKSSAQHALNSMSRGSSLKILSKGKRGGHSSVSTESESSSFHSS

PTHrP(1-34): parathyroid hormone-related peptide fragment 1-34, SEQ ID NO:7
decrease of cortical infarct size (cortical infarct): up to 47%

c1cc(CN2CCCNCCNCCCNCC2)ccc1CN1CCCNCCNCCCNCC1 [AMD3100]
decrease of bone marrow derived cell recruitment after MI (CXCR4): 64%
recruitment of CD34+/CXCR4+ cells into the heart after MI [1]: diminished the number; also recorded: reversed the recruitment

B1: G-CSF: granulocyte colony stimulating factor (Amgen Biologicals) (protein, UniProt P09919 31-207, looked up)
Granulocyte …: TPLGPASSLPQSFLLKCLEQVRKIQGDGAALQEKLVSECATYKLCHPEELVLLGHSLGIPWAPLSSCPSQALQLAGCLSQLHSGLFLYQGLLQALEGISPELGPTLDTLQLDVADFATTIWQQMEELGMAPALQPTQGAMPAFASAFQRRAGGVLVASHLQSFLEVSYRVLRHLAQP
number of TUNEL positive cardiomyocytes in the border zone [2]: decreased apoptotic cell death; also recorded: reduced the number
survival rate (myocardial infarction; CD26 k.o. mice): 75%
survival rate (myocardial infarction; wt animals): 55%
mobilization of CD45+/CD34+ progenitors in peripheral blood (CD45+/CD34+ progenitors): significantly increased mobilization
number of CD31+ capillaries at the infarct borderzone (infarcted heart; 6 days after MI, CD26 k.o. animals): Increased neovascularization; also recorded: significantly increased number
size of LV infarction (scar tissue) (infarcted heart; day 30, CD26 k.o. animals): smaller
thickness of the left ventricular wall (infarcted heart; day 30, CD26 k.o. animals): significantly improved thickness; also recorded: significantly ameliorated
subtypes of CD45+/CD34+ and CD45+/CD34- cells in peripheral blood [3]: significant increase
arterial afterload (arterial elastance) (myocardial function): markedly reduced
diastolic heart function (isovolumetric relaxation parameter Tau) (myocardial function): improved diastolic heart function
ventricular dilation measured by enddiastolic volumes (myocardial function): attenuated ventricular dilation
increase of CD45+/CD34- cells in bone marrow compared to saline treated mice ([4]; G-CSF treatment, p<0.001): 18.9%
subtypes of CD45+/CD34- cells in bone marrow ([4]; PTH day 6, G-CSF): significantly decreased
subtypes of CD45+CD34+ cells in bone marrow ([4]; PTH day 6 or day 14, G-CSF vs control group): significant decrease
